# Measurements: the DeepSol protein solubility set
# Experiment: soluble on expression in E. coli; label from the status in PepcDB or PDB records
row,Sequence,soluble on expression in E. coli
1,MGSDKIHHHHHHAIKNCQIHTFSLSHDSVSGLDTVKFTIDQLTGRIFNIDSLPFGTKIEKVVCKIGFANSSVIGGVEASPEAYPDSTYYLSSLSDSIDFSAPVKFVVHAYDQVTTKVYMAQVNIHQVVPDSMVWSMYANPMIGITVKDQKVVTYDYNGSENYFMYVKPAESGKPYQLYYAPVSAPKGWQSLSLTGLPSDGLLISQITEYNNALYVPATNGTLYRSEDGLTWSAVENAPSVKYVLGSVKQGTKQPSALATIVDQEGKLAFYAMNESMEWIAGDAVPSGFPVTGFSNLQYAAMYHEYLMTASGRTVDNQVVNTTWATMDGISWALMASGDANFTKREGAMITNYDDKFFLIGGIDASNKALKDMYQSIDYGISWSLIDSMVVLPTDYAARGFSSIIVDKENFVNIFGGKISTGSNDLNQLWRGRINRLIPKE,not soluble
2,MKKILLMLSLLFFTTAGFSEVSDTLVTGGYDKQAMSDAIKHARKETDKFIEVMNKKDADTFAVKAPITDHGRTEHFWLTDVTYSNGMFIGVISNDPGIVTNVEYGQEWKIKKEDISDWMYTRGDKIYGGYTIDPLLVTYPKEEADELRAKLVR,soluble
3,MSLGEDSEGSGTSGISPGGNSVSEEVLKHRSMVEKYAKESDILDYVPILLAIIQVESGGTMEDVMQSSESAGLPPNSLSTEASIKQGCIYFASLVKSSKELGCDQDSIIQAYNYGGGYLNYVAKNGKKHSFTLAESFSKEKSGGQKVDYPNPIAIKENGGWRYNYGNMFYCLLVKQYLTTTQFDDKTVQGIFDEAFKYEGTAYVFGGSSPATGFDCSGLTQWCYAKVGLKLPRVAQDQYDVMTHIDLKDAKPGDLIFFHSTYDAGTYVTHVGIYAGENRMFHAGNPVGWTNLTESYWQQHLIGAGRYNEGHHHHHH,soluble
4,NLKDVEHVVILMQENRSFDHYFGTLKGVRGFGDRMAIPLPDGQRVWHQKGSKGEILPYHFDTSTTSAQRVDGTPHTWPDAQQAWNEGRMDKWLPAKTERSLGYYKEQDIAFQFAMANAFTICDAYHCSFQGGTNPNRLFLWTGTNDPLGQHGGPVTTNDHDSNGPVEQGYTWTTYPERLQAAGITWRVYQDMADNFSDNPLIGFRQYRAAAPDSPLIVNGLSTWKLDALKRDVLANSLPQVSWIVAPAKYSEHPGPSSPIWGAEYTSWVLDALTANPEVWSKTALLVMFDENDGFFDHVAPPAAPSLNKDGTLRGKTTADATLEWHTKGDIRYRNQPYGLGPRVPMYVISPWSKGGWVNSQVFDHTSVIRFLEQRFGVMEPNISPWRRAVCGDLTSAFNFANPNNEPFPELPDTSQADAIVASQIKLPKPKPPAVAAMPKQEMGIRPARALPYELGVHARYRSGGDALSLTFANTGKAGAVFQVFDLLDSENPPKRYTVGARKRLHDSFQGDASGDYHLEVHGPNGFLRVFRGNLRRDLAERKAPLPEVRIDYEPLFGNLRVQLINRGRHPVKLTVKDNVYRQGERRTVNVPPGQRREVRYSLRSSGNWYDFSVSAQGADSFLRRFSGRMEDGRSGFSDPGMGLGTLTF,not soluble
5,MNRPSGRAADQLRPIRITRHYTKHAEGSVLVEFGDTKVICTVSAESGVPRFLKGQGQGWLTAEYGMLPRSTGERNQREASRGKQGGRTLEIQRLIGRSLRAALDLSKLGENTLYIDCDVIQADGGTRTASITGATVALIDALAVLKKRGALKGNPLKQMVAAVSVGIYQGVPVLDLDYLEDSAAETDLNVVMTDAGGFIEVQGTAEGAPFRPAELNAMLELAQQGMQELFELQRAALAE,soluble
6,MGSDKIHHHHHHMRLYTRTGDKGKTSVIGGRLAKDDTRVVAYGTTDELNSFVGSAITQLDENTFADIRGELFKIQHELFDCGGDLAMLKVKEDRPYKAKQEIVDFLEQRIDAYIKEAPELERFILPGGSEAAASLHVCRTIARRAERYVVRLQQEGEINPIVLKYLNRLSDYFFAVARVVNSRLQVPDVEYERSAIVFREGKRKEDKK,soluble
7,MGRVVLWLLLLALLPAYAQETYDWIVVLGAAQYGGRPSPALERRLQAALHLFREGRGRRIAVAGGKAPEDLYSEGEVGCRYLAARGVPEEALFCETRSRSTYENLLFLKPHLEGRLLLVTDAPHLPRALFLARLLGLEAEGYPVPGNYPLGYWAKEALYRLWLYLGLRPQGVFSSRFNASRAAALEHHHHHH,not soluble
8,MGSDKIHHHHHHMNAGLDGLLLLRAPNLAYATGLFLSANERPMGVWLPMDGDPILMLPGLERENAKGTGLTDLRFYDEFPGKEPPVLWMLDQIGRKHIGIDALDAALLDAARDKAVRIDLTDHAMAARTIKEPEEIALTVEAASFADLFLTRLHAAAGDIINQGGTEADLMADAMAHARGALMAKHKQAFSGTPMGITASVHSGPRAALPHGAVLERVPQPGETLIAGIGASLGGYHAESGVTLIVGSISAEQRQIMAAMKACNDAGVAACGARTTCTQANDAALDALRAAGLGDTIRHRIGHGMGLEGHEDPWLAPGDPTPIQTHMIFSNEPGVYRPGIDGYRTINTMIVTEDGVDIPSRFQANTPIDARVIAL,not soluble
9,MEPHSLRYNLMVLSQDESVQSGFLAEGHLDGQPFLRYDRQKRRAKPQGQWAEDVLGAETWDTETEDLTENGQDLRRTLTHIKDQKGGLHSLQEIRVCEIHEDSSTRGSRHFYYNGELFLSQNLETQESTVPQSSRAQTLAMNVTNFWKEDAMKTKTHYRAMQADCLQKLQRYLKSGVAIRRTVPPMVNVTCSEVSEGNITVTCRASSFYPRNITLTWRQDGVSLSHNTQQWGDVLPDGNGTYQTWVATRIRQGEEQRFTCYMEHSGNHGTHPVPSGKVLVLQSQRTDFPYVSAAMPCFVIIIILCVPCCKKKTSAAEGP,soluble
10,MSLAAELLIATGEYAPWTGEQLPDGGYVNRVVREAFAREGVQVRFAYMPWARALEALRNGNAQASSFWYDDPVKAKEFLYSAPISEHRELLFHRKDVTVPPWRKLRDLRGLRFGATHGYTYTAEFRQLMKQGALNVEEANDDKINLLKMLAGRIELFPLDEFTGWQLLTSDAFPRGAHDLVTTEARPFSIQYGHLLMPRSARNEQLMARFNAGLARLRADGTLERFRLDLYRGSGMGEGHHHHHH,soluble
11,MAHHHHHHMKDEQISCYYLTEKGKNKCFKNIKLITFDLDHTIWNIDALLNYADNECYKYMEQNYKRLYDYLSKEYALSMTNLVKELLERNIDMNKDGVQILTRIRTDALKYLAKQTNYDEIKFASEIQKLWKEKKKDVHLFISPGTLEYLRELKNRGYILGAITNGDSDVNEIKFLNEIFSFVVRSMDYNFAKPNVEIFNIAENLLKEKNINFHVDEWLHVGDDVYTDIMGAKNKNINCAWITMFREGREISHKEWYSYLKLKYEQNDNKQTLSQYDPYADGLFAKFRKKDVVLPFDYIDIEIRHCRDLDSILA,not soluble
12,MGESHAPSKPKLDGELCLRPSSSVFLGDQQLYFTQEYLRTNSLNLKYVVYFTACQFSGPIAVAYSPRPASWYIWIRTISGRILKRDMAFNEPVFMEWTRAHCLLVLNKAGRAHIFSSLGEKISEVIFDSQMSDVHECRTFATSRGDSGIAVMDVDGQVSVVNSVSEPVIWSMKPPYSEMPTAWTAFQPHSQLTHILLIFEAVFLMGCQGESLREQSHAASWVDSNTKYVKCVVDDARSRIAMMTESGKIQIVSIDLSTCFCTVEITDHDIAKCINFGWVGNSAVFVQMSPSLIVFVNVSARRKPGDEVQIYEKMTANAKISIEPDGIRLFESTQVEFVEAASREKIAVLNRNPNEDGAHLYKAAQEMSQGTGHNSFAASTVIQDLYKAIDDCISTACDTWQPEEQKLLLKAARFGMAYTNTTPDTTKLMRAIKEIRVLNELRMVRTGIPLTHRQFRAIGETCVINRLIDMGSYSVAIKVAQWLGGETSENVDRVLLEWVRRSISKVSKSNMKMDQPALEALDEKISAKLLQFPHVSIADAARRAIEAKLPELARLFIRRETDDANHVAVLLQLNDVSAALQKASASQRPQLIHQVVRHLMNSESRSSYELAISRIPLAQCLYQDLVRQEGETRGASSRQMLALLEQASDFERQTLFHFDVAETERNPDERLNALRRAKDAAKSMGDKAIEEILNDVSAFAPLQIQRGQADMSVRDTVIEMAHDTAKVAQLKQQARLTDKQVLLWTIEGLAKKGKMEQLFDLAQKRSPIGYAPFVKACVRYKRLDEIKKYFAKVNGYPDLVAAHLAMKNYVEAAKLAYDRRDRDVLHAVHMKSHEDPTQCPRVGQFLRSLDQN,not soluble
13,MSNKNKSYDYVIIGGGSAGSVLGNRLSEDKDKEVLVLEAGRSDYFWDLFIQMPAALMFPSGNKFYDWIYSTDEEPHMGGRKVAHARGKVLGGSSSINGMIYQRGNPMDYEGWAEPEGMETWDFAHCLPYFKKLEKTYGAAPYDKFRGHDGPIKLKRGPATNPLFQSFFDAGVEAGYHKTPDVNGFRQEGFGPFDSQVHRGRRMSASRAYLHPAMKRKNLTVETRAFVTEIHYEGRRATGVTYKKNGKLHTIDANEVILSGGAFNTPQLLQLSGIGDSEFLKSKGIEPRVHLPGVGENFEDHLEVYIQHKCKEPVSLQPSLDIKRMPFIGLQWIFTRTGAAASNHFEGGGFVRSNNEVDYPNLMFHFLPIAVRYDGQKAAVAHGYQVHVGPMYSNSRGSLKIKSKDPFEKPSIRFNYLSTEEDKKEWVEAIRVARNILSQKAMDPFNGGEISPGPEVQTDEEILDWVRRDGETALHPSCSAKMGPASDPMAVVDPLTMKVHGMENLRVVDASAMPRTTNGNIHAPVLMLAEKAADIIRGRKPLEPQYIDYYKHGVHDENEGAIEVKPYAK,not soluble
14,MAGDGSLVASFGDIDRATTVTTIVAGVGSSNPEGWNTYVDRARTVSASTGSATVLWLGYQAPASIPAAVSGAAANRAAADLQRFQAALQSRNPHQRKVVMGYSYGSTVVGKAASSGELSADALVLVGSPGAGVSHSSQLGAPVYAVTGSADPIGFAGTQYDGIHGTDPTAALFGATVWDSPSTHSGYWNDQEFLGNVAEVVRGKLEHHHHHH,not soluble
15,FSAPIKAERTAFRRAVCANQYDAVIDAQGLVKSAALVTRLAHGIKHGMDWSTAREPLASLFYNRKHHIAKQQHAVERTRELFAKSLGYDKPQSQGDYAIAKHFLHCQQAVSDPYAVFLHATTRDDKHWPEANWRELIGLVGNTGLRIKLPWGAPHEEARAKRLAEGFDYVDVLPRMSLEEVARVLAGAKFVVSVDTGLSHLTAALDRPNITLYGPTDPGLIGGYGKNQ,not soluble
16,MSLGGTMVFRPVDVPGGAVFADQKITLGGGSPDRAFIENAHPDYLSGSFAEKNAWRYYIAKYELTAAQYAAIAGPCPDASKMDLWLPKVGITPGEATVAAESYSAWLFANARKSLPGDGKAPGFVRLPTEAEWEYAARGGAKVGPSDFDARHPPMDGPESGAIWYDGPESADKELQLVGLLAANPLGLHDMLGNAAELVQDLFRLNRVGRPHGRAGAFVKRGGDYRTPLAEIHSGLRQEFDLFDAKGLRREATTGTRFVLAAAALPSRDRLEALRQGWTALTEQSHSPLAEQQSDPRAELKTLSEFTSQLDFPEKAEVKRRLLNLAGVIDANIASRNEERDRAAREMLRVAVFAAGQLPTALDNAERCGKLMALNAAQYKERCDRVQADSKFDSQYYLDHVTRMLAEFPVPILEGQLGTLGSDLHAQGMLDAEGRVDHVFSDLKTLQAKGATAHKGILGGWKGREGHHHHHH,not soluble
17,MPSADVLIIGSGIAALRVAKEICHEKNVIIITKETNRNNNTHLAQGGIAAAVATYDNPNDHFEDTLVAGCRYNNEDVVRYLVEEGPKEMKNLIENGMQFDGDETGPHLGKEGAHRKRRILHAGGDATGKNLLEHFIQEVVPHVTVVEQEMVLDFIIESEKCVGVLTRNSEGKLKRYDADYTVLASGGVGGLYAFTSNDKTITGDGLAMVYRAGGELVDLEFVQFHPTMLYAGGQCCGLVSEAVRGEGAVLINGKGQRFMMDIHDDYDLAPRDVVARAIHEQLLSGEKVYLNIGSIQNFQERFPTVSALCKKNGVDITKKRIPVVPGAHFHMGGVKTNIDGETSIPNLYAVGEVACNGVHGANRLASNSLLEGLVFGKRIGQHILTKATKDKLNDFAEKEKKFIVLNHLPTKEEIQECMMKYVGIVRTEQSLSYAKRWLSKYGVRNMILQHDALTNEEITLINMLTVCELIVVSALQREESIGGHYRSDYPHRNSAQKEIIRVKRKLQLV,not soluble
